From article PMC9174178 (Cell Reports, 2022)

How the values were obtained:
[1] = target: T1, SARS-CoV receptor-binding domain (RBD) (SARS-CoV (AAP13441.1), UniProt P59594); assay: SPR
[2] = target: T2, BM-4831-CoV receptor-binding domain (RBD) (Bat coronavirus BM48-31/BGR/2008); assay: SPR
[3] = target: Yun11-CoV receptor-binding domain (RBD) (Bat coronavirus Cp/Yunnan2011, UniProt R9QTH3); assay: ELISA
[4] = target: ZC45-CoV receptor-binding domain (RBD) (Bat SARS-like coronavirus ZC45, UniProt A0A2R3SUW7); assay: ELISA
[5] = target: BtkY72-CoV receptor-binding domain (RBD) (Bat coronavirus BtKY72, UniProt A0A3Q8AKM0); assay: ELISA
[6] = target: Rs4092-CoV receptor-binding domain (RBD) (Bat SARS-like coronavirus Rs4092, UniProt A0A2D1PX37); assay: ELISA
[7] = target: RaTG13-CoV receptor-binding domain (RBD) (Bat coronavirus RaTG13, UniProt A0ABF7PLN6); assay: ELISA
[8] = target: SHC014-CoV receptor-binding domain (RBD) (Bat SARS-like coronavirus RsSHC014, UniProt U5WLK5); assay: ELISA
[9] = target: YN2013-CoV receptor-binding domain (RBD) (BtRs-BetaCoV/YN2013, UniProt A0A0U1WJY8); assay: ELISA
[10] = target: Rf1-CoV receptor-binding domain (RBD) (Bat SARS CoV Rf1/2004, UniProt Q0QDZ0); assay: ELISA
[11] = target: Rs4081-CoV receptor-binding domain (RBD) (Bat SARS-like coronavirus Rs4081, UniProt A0A2D1PX44); assay: ELISA
[12] = target: Rs7327-CoV receptor-binding domain (RBD) (Bat SARS-like coronavirus Rs7327, UniProt A0A2D1PXC0); assay: ELISA
[13] = target: W1V1-CoV receptor-binding domain (RBD) (Bat SARS-like coronavirus WIV1, UniProt U5WI05); assay: ELISA
[14] = target: HKU3-1-CoV receptor-binding domain (RBD) (Bat coronavirus HKU3-1, UniProt Q3LZX1); assay: ELISA
[15] = target: pangolin17-CoV receptor-binding domain (RBD) (Pangolin coronavirus (pangolin17, …)); assay: ELISA
[16] = target: Rp3-CoV receptor-binding domain (RBD) (Bat SARS-like coronavirus Rp3/2004, UniProt Q3I5J5); assay: ELISA
[17] = target: Shaanxi2011-CoV receptor-binding domain (RBD) (Bat coronavirus Rp/Shaanxi2011, UniProt R9QTA0); assay: ELISA
[18] = target: T2, BM-4831-CoV receptor-binding domain …; assay: ELISA
[19] = target: SARS-CoV-2 receptor-binding domain (RBD) (SARS-CoV-2 (MN985325.1), UniProt P0DTC2)
[20] = target: T1, SARS-CoV receptor-binding domain (RBD)

B1: psNb 2-45 (VHH)
VHH: QVQLVESGGGLVQAGGSLRLSCTASGYDFSILAIAWYRQAPGKERELVAAISRVGSTDYADSVKGRFTISRDNTKNTVSLQMDSLKPEDTAVYYCNAGIPMTTVLSGLGFWGQGTQVTVSS
- Kd [1]: 304 nM
- Kd [2]: 0.044 nM
- binding result [3]: binds
- binding result [4]: binds
- binding result [5]: binds
- binding result [6]: binds
- binding result [7]: binds
- binding result [8]: binds
- binding result [9]: binds
- binding result [10]: binds
- binding result [11]: binds
- binding result [12]: binds
- binding result [13]: binds
- binding result [14]: binds
- binding result [15]: binds
- binding result [16]: binds
- binding result [17]: binds

B2: psNb 2-65 (VHH)
VHH: HVQLVESGGGLVQAGGSLRLSCAASGTISTLNAMGWYRQAPGKQRELLASISNLGTTYHADSVAGRFTISRGSAKNTVNLQMNSLKPDDTAVYYCNTRVLEGGTQIRDYWGQGTQVTVSS
- binding result [18]: binds

B3: psNb 2-38 (VHH)
VHH: QVQLVESGGGLVQAGGSLRLSCAAAARFSTSAMGWFRQAPGKEREFVAAISWSNTNTHYADTVKGRFTISADTAKETVDLQMNSLKPEDTAVYYCVQGGWGIRQPIIVDYWGKGTQVTVSS
- binding result [18]: binds

B4: psNb 2-31 (VHH)
VHH: QVQLVESGGGLVQAGESLRLSCAASKPTFRNFAAGWFRQTPGKDREFVAVIEYDGDSAYYADSVKGRFTISRDNAKNTVYLQMNRLKPGDTAVYICAIGGNHYDPSKYYTADEYDYWGQGTQVTVSS
- Kd [1]: 0.00396 nM
- Kd [2]: 3.6 nM
- binding result [3]: binds
- binding result [4]: binds
- binding result [5]: binds
- binding result [6]: binds
- binding result [7]: binds
- binding result [8]: binds
- binding result [9]: binds
- binding result [10]: binds
- binding result [11]: binds
- binding result [12]: binds
- binding result [13]: binds
- binding result [14]: binds
- binding result [15]: binds
- binding result [16]: binds
- binding result [17]: binds

B5: psNb 1-23 (VHH)
VHH: QVQLVESGGGLVQAGGSLRLSCAASGRTDSISDMGWFRQAPGKEREFVAVVGWSGGGTDYAHSVKGRFTISRDNAKNTVYLQMNSLKPEDTAVYYCAVGSLRVGSFSVEYWGQGTQVTVSS
- binding result [18]: binds

B6: psNb 1-22 (VHH)
VHH: HVQLVESGGGLVQPGGSLRLSCAASGRSFNSYLMGWFRQAPGKEREFVAWISGSPHDIIRYRDSVKDRFTISRDNAKNTVYLQMNSLKPVDTAVYYCAVGSLRVGSFSPDYWGQGTQVTVSS
- binding result [18]: binds

B7: psNb 2-34 (VHH)
VHH: HVQLVESGGGLVQAGGSLRLSCAASGRTFSRYAAGWFRQAPGKEREFVAVIEWDGDSAYYADPVKGRFTISRDNAKNTVYLQMNRLKPEDTAVYICAVGGNHYSRSKYYNLDEYDDWGQGTQVTVSS
- binding result [3]: binds
- binding result [4]: binds
- binding result [5]: binds
- binding result [6]: binds
- binding result [7]: binds
- binding result [8]: binds
- binding result [9]: binds
- binding result [10]: binds
- binding result [11]: binds
- binding result [12]: binds
- binding result [13]: binds
- binding result [14]: binds
- binding result [15]: binds
- binding result [18]: binds
- binding result [16]: binds
- binding result [17]: binds

B8: 1-28 (VHH)
VHH: QVQLVESGGGLVQAGGSLRLSCAVSGRTVSTYGMAWFRQTPGKKRDFVATITRSEGTTFYADSVKGRFTISRDNAKNTVYLQMNSLKIEDTAVYYCAVRRDSSWGYSRDLFEYDDWGQGTQVTVSS
- binding result [19]: binds
- binding result [20]: binds
